# According to patent US20210017257A1 (XBIOTECH, published 2021):
# B1: PA15-G3 Ab (antibody, human IgG3, kappa)
# heavy: EVQLVETGGGLVRPGGSLRLSCAASGLTFSTFAMNWVRQAPGKGLEWVSSISGSGGSTYYADSVKGRFTISRDNAKNTVYLQMNSLRAEDTAVYYCARDFNWDSGTMDLWGQGTTVTVSPASTKGPSVFPLAPCSRSTSGGTAALGCLVKDYFPEPVTVSWNSGALTSGVHTFPAVLQSSGLYSLSSVVTVPSSSLGTQTYTCNVNHKPSNTKVDKRVELKTPLGDTTHTCPRCPEPKSCDTPPPCPRCPEPKSCDTPPPCPRCPEPKSCDTPPPCPRCPAPELLGGPSVFLFPPKPKDTLMISRTPEVTCVVVDVSHEDPEVQFKWYVDGVEVHNAKTKPREEQYNSTFRVVSVLTVLHQDWLNGKEYKCKVSNKALPAPIEKTISKTKGQPREPQVYTLPPSREEMTKNQVSLTCLVKGFYPSDIAVEWESSGQPENNYNTTPPMLDSDGSFFLYSKLTVDKSRWQQGNIFSCSVMHEALHNRFTQKSLSLSPGK
# light: not shown
# notes: Human IgG3
# B2: PA7.2-G3 Ab (antibody, human IgG3, kappa)
# heavy: EVQLVESRGGLVQPGGSLRLSCAASGFTFSNYAMSWVRQAPGKGLEWVSTISGSDGGTYYADSVKGRFTISRDNSGNTVYLQMNSLREDDTAVYYCARVGLSAPVTFFDFWGQGTLVTVSSASTKGPSVFPLAPCSRSTSGGTAALGCLVKDYFPEPVTVSWNSGALTSGVHTFPAVLQSSGLYSLSSVVTVPSSSLGTQTYTCNVNHKPSNTKVDKRVELKTPLGDTTHTCPRCPEPKSCDTPPPCPRCPEPKSCDTPPPCPRCPEPKSCDTPPPCPRCPAPELLGGPSVFLFPPKPKDTLMISRTPEVTCVVVDVSHEDPEVQFKWYVDGVEVHNAKTKPREEQYNSTFRVVSVLTVLHQDWLNGKEYKCKVSNKALPAPIEKTISKTKGQPREPQVYTLPPSREEMTKNQVSLTCLVKGFYPSDIAVEWESSGQPENNYNTTPPMLDSDGSFFLYSKLTVDKSRWQQGNIFSCSVMHEALHNRFTQKSLSLSPGK
# light: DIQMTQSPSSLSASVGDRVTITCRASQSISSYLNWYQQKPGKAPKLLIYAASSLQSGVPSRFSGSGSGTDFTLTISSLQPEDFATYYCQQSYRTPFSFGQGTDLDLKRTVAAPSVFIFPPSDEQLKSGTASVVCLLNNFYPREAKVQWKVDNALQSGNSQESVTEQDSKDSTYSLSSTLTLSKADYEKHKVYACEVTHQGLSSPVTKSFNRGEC
# notes: Human IgG3
# B3: PA27-G3 Ab (antibody, human IgG3, kappa)
# heavy: QVQLVESGGGLVQPGGSLRLSCAASGFTFSKYGMSWVRQAPGKGLEWVSTISGSGFTTYYADSVKGRFTISRDDFKNTLYLQMNSLRAEDTAVYYCAKDGWDYEDFFGSWGQGTLVTVSSASTKGPSVFPLAPCSRSTSGGTAALGCLVKDYFPEPVTVSWNSGALTSGVHTFPAVLQSSGLYSLSSVVTVPSSSLGTQTYTCNVNHKPSNTKVDKRVELKTPLGDTTHTCPRCPEPKSCDTPPPCPRCPEPKSCDTPPPCPRCPEPKSCDTPPPCPRCPAPELLGGPSVFLFPPKPKDTLMISRTPEVTCVVVDVSHEDPEVQFKWYVDGVEVHNAKTKPREEQYNSTFRVVSVLTVLHQDWLNGKEYKCKVSNKALPAPIEKTISKTKGQPREPQVYTLPPSREEMTKNQVSLTCLVKGFYPSDIAVEWESSGQPENNYNTTPPMLDSDGSFFLYSKLTVDKSRWQQGNIFSCSVMHEALHNRFTQKSLSLSPGK
# light: DIQMTQSPSSLSASVGDRVTITCRASQSISSYLNWYQQKPGKAPKLLIYAASSLQSGVPSRFSGSGSGTEFTLTITNLQPEDFGTYYCQQSYAFPYTFGQGTRLEIKRTVAAPSVFIFPPSDEQLKSGTASVVCLLNNFYPREAKVQWKVDNALQSGNSQESVTEQDSKDSTYSLSSTLTLSKADYEKHKVYACEVTHQGLSSPVTKSFNRGEC
# notes: Human IgG3
# B4: PA32-G3 Ab (antibody, human IgG3, kappa)
# heavy: EVQLVETGGGLAQPGGSLRLSCAASGFIFSDYYMDWVRQAPGKGPEWVASIKADGSETHYVDSVKGRFTISRDNAKNSLYLQMNSLRVEDTAVYYCGRDPGRRFDYWGQGTLVTVSSASTKGPSVFPLAPCSRSTSGGTAALGCLVKDYFPEPVTVSWNSGALTSGVHTFPAVLQSSGLYSLSSVVTVPSSSLGTQTYTCNVNHKPSNTKVDKRVELKTPLGDTTHTCPRCPEPKSCDTPPPCPRCPEPKSCDTPPPCPRCPEPKSCDTPPPCPRCPAPELLGGPSVFLFPPKPKDTLMISRTPEVTCVVVDVSHEDPEVQFKWYVDGVEVHNAKTKPREEQYNSTFRVVSVLTVLHQDWLNGKEYKCKVSNKALPAPIEKTISKTKGQPREPQVYTLPPSREEMTKNQVSLTCLVKGFYPSDIAVEWESSGQPENNYNTTPPMLDSDGSFFLYSKLTVDKSRWQQGNIFSCSVMHEALHNRFTQKSLSLSPGK
# light: not shown
# notes: Human IgG3
# B5: PA21-G3 Ab (antibody, human IgG3, kappa)
# heavy: EVQLVESGGGVVQPGGSLRLSCAASGFTFSSYGMHWVRQAPGKGLEWVSGISGDAGSTYYADSVKGRFTISRDNSKNTLYLQMNSLRAEDMAVYYCARVMNYYGPGSAFDYWGQGTLVTVSSASTKGPSVFPLAPCSRSTSGGTAALGCLVKDYFPEPVTVSWNSGALTSGVHTFPAVLQSSGLYSLSSVVTVPSSSLGTQTYTCNVNHKPSNTKVDKRVELKTPLGDTTHTCPRCPEPKSCDTPPPCPRCPEPKSCDTPPPCPRCPEPKSCDTPPPCPRCPAPELLGGPSVFLFPPKPKDTLMISRTPEVTCVVVDVSHEDPEVQFKWYVDGVEVHNAKTKPREEQYNSTFRVVSVLTVLHQDWLNGKEYKCKVSNKALPAPIEKTISKTKGQPREPQVYTLPPSREEMTKNQVSLTCLVKGFYPSDIAVEWESSGQPENNYNTTPPMLDSDGSFFLYSKLTVDKSRWQQGNIFSCSVMHEALHNRFTQKSLSLSPGK
# light: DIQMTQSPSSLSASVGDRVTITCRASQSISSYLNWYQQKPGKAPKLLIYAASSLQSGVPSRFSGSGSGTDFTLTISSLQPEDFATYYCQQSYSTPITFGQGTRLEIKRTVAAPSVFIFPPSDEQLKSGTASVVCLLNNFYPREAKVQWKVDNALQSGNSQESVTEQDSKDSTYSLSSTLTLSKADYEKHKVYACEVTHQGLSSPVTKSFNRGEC
# notes: Human IgG3
# B6: PA37-G3 Ab (antibody, human IgG3, kappa)
# heavy: EVQLLESGGGLVQPGGSRRLSCATSGLSFSSYAMNWVRQAPGKGLEWVSAISGSGDITHYADSVKGRLTISRDNSKNTVYLQMNSLRGEDTAVYYCAKGPWLAPGGWFDPWGQGTLVTVSSASTKGPSVFPLAPCSRSTSGGTAALGCLVKDYFPEPVTVSWNSGALTSGVHTFPAVLQSSGLYSLSSVVTVPSSSLGTQTYTCNVNHKPSNTKVDKRVELKTPLGDTTHTCPRCPEPKSCDTPPPCPRCPEPKSCDTPPPCPRCPEPKSCDTPPPCPRCPAPELLGGPSVFLFPPKPKDTLMISRTPEVTCVVVDVSHEDPEVQFKWYVDGVEVHNAKTKPREEQYNSTFRVVSVLTVLHQDWLNGKEYKCKVSNKALPAPIEKTISKTKGQPREPQVYTLPPSREEMTKNQVSLTCLVKGFYPSDIAVEWESSGQPENNYNTTPPMLDSDGSFFLYSKLTVDKSRWQQGNIFSCSVMHEALHNRFTQKSLSLSPGK
# light: not shown
# notes: Human IgG3
# Biological target: T1, Staphylococcus aureus protein A (SpA), commercial wildtype (Staphylococcus aureus, UniProt A0A0H3K686 37-477, limits assumed)
# T1 construct: also called wildtype SpA; antigen
# T1 sequence (A0A0H3K686 37-477 limits assumed): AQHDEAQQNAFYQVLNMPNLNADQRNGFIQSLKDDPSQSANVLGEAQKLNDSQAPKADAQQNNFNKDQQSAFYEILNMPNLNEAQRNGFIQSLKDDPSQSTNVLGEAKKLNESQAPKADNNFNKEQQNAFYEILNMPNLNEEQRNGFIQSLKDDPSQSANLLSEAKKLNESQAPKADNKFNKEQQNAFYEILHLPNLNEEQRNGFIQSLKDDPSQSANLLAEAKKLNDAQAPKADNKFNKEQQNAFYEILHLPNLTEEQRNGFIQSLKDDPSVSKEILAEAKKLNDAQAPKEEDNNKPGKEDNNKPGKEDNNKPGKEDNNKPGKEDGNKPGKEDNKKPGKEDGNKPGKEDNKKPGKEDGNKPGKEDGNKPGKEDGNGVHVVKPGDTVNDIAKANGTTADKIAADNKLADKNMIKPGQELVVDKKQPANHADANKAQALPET
# Assay: Bio-Layer Interferometry (ForteBio Octet Red 96), 20 nM antigen; BLI, 20 nM antigen
row,Binder,Kd [pM]
1,B1,< 1
2,B2,< 1
3,B3,< 1
4,B4,< 1
5,B5,< 1
6,B6,< 1
